Assay results reported in US20230212244A1 (IMMATICS BIOTECHNOLOGIES, published 2023).
Square brackets hold non-standard residues; d marks the D form. Ends that are not written are not given here. pS = N[C@@H](COP(=O)(O)O)C(=O)O

Target: T1, HLA-A*02:01 (human)
T1 construct: MHC class I monomer made peptide-receptive by UV cleavage of a UV-sensitive ligand; also called peptide-receptive MHC molecules
Assay: UV-ligand exchange ELISA (anti-β2m), peptide exchange yield grade
Description: Candidate peptides for T cell based therapies according to the present invention were further tested for their MHC binding capacity (affinity). The individual peptide-MHC complexes were produced by UV-ligand exchange, where a UV-sensitive peptide is cleaved upon UV-irradiation, and exchanged with the peptide of interest as analyzed. Only peptide candidates that can effectively bind and stabilize the peptide-receptive MHC molecules prevent dissociation of the MHC complexes. To determine the yield of the exchange reaction, an ELISA was performed based on the detection of the light chain (β2m) of stabilized MHC complexes. The assay was performed as generally described in Rodenko et al. (Rodenko et al., 2006).
96 well MAXISorp plates (NUNC) were coated over night with 2ug/ml streptavidin in PBS at room temperature, washed 4× and blocked for1h at 37° C. in 2% BSA containing blocking buffer. Refolded HLA-A*02:01/MLA-001 monomers served as standards, covering the range of 15-500 ng/ml. Peptide-MHC monomers of the UV-exchange reaction were diluted 100 fold in blocking buffer. Samples were incubated for 1h at 37° C., washed four times, incubated with 2 ug/ml HRP conjugated anti-β2m for 1h at 37° C., washed again and detected with TMB solution that is stopped with […]. Absorption was measured at 450 nm. Candidate peptides that show a high exchange yield (preferably higher than 50%, most preferred higher than 75 %) are generally preferred for a generation and production of antibodies or fragments thereof, and/or T cell receptors or fragments thereof, as they show sufficient avidity to the MHC molecules and prevent dissociation of the MHC complexes.

Binder	peptide exchange yield
VLVDQSWVL [peptide VLVDQSWVL (SEQ ID NO: 16)]	50 to 75%
RLLDFPEAMVL [peptide RLLDFPEAMVL (SEQ ID NO: 165)]	≥ 75%
GLLEARGILGL [peptide GLLEARGILGL (SEQ ID NO: 166)]	50 to 75%
SVIDHIHLISV [peptide SVIDHIHLISV (SEQ ID NO: 167)]	50 to 75%
GLIRFPLMTI [peptide GLIRFPLMTI (SEQ ID NO: 168)]	50 to 75%
YLAHFIEGL [peptide YLAHFIEGL (SEQ ID NO: 169)]	50 to 75%
ALAGGITMV [peptide ALAGGITMV (SEQ ID NO: 170)]	50 to 75%
RLQETEGMVAV [peptide RLQETEGMVAV (SEQ ID NO: 171)]	20 to 50%
LLLDTVTMQV [peptide LLLDTVTMQV (SEQ ID NO: 172)]	50 to 75%
KLGDLMVLL [peptide KLGDLMVLL (SEQ ID NO: 173)]	50 to 75%
ILLDDNMQIRL [peptide ILLDDNMQIRL (SEQ ID NO: 174)]	≥ 75%
ALAAARVEL [peptide ALAAARVEL (SEQ ID NO: 17)]	50 to 75%
TLLGGKEAQALGV [peptide TLLGGKEAQALGV (SEQ ID NO: 175)]	50 to 75%
RTLDKVLEV [peptide RTLDKVLEV (SEQ ID NO: 176)]	20 to 50%
ALLQGAIESV [peptide ALLQGAIESV (SEQ ID NO: 177)]	50 to 75%
YLFREPATI [peptide YLFREPATI (SEQ ID NO: 178)]	20 to 50%
RLL[pS]PLSSA (Phosphopeptide) [peptide RLLJPLSSA (SEQ ID NO: 179)]	50 to 75%
NLFDLGGQYLRV [peptide NLFDLGGQYLRV (SEQ ID NO: 181)]	50 to 75%
SLNKWIFTV [peptide SLNKWIFTV (SEQ ID NO: 182)]	≥ 75%
TLQEVVTGV (also called TLQEWTGV) [peptide TLQEVVTGV (SEQ ID NO: 183)]	50 to 75%
SLLDENNVSSYL [peptide SLLDENNVSSYL (SEQ ID NO: 184)]	50 to 75%
VLYTGVVRV [peptide VLYTGWRV (SEQ ID NO: 185)]	50 to 75%
FLSSLKGGLL [peptide FLSSLKGGLL (SEQ ID NO: 18)]	50 to 75%

Binder	peptide exchange yield
KMSEKILLL [peptide KMSEKILLL (SEQ ID NO: 186)]	50 to 75%
GLHNVVYGI (also called GLHNWYGI) [peptide GLHNVVYGI (SEQ ID NO: 187)]	50 to 75%
FLVDGPRVQL [peptide FLVDGPRVQL (SEQ ID NO: 188)]	50 to 75%
AISEVIGKITA [peptide AISEVIGKITA (SEQ ID NO: 189)]	50 to 75%
AMAEMVLQV [peptide AMAEMVLQV (SEQ ID NO: 190)]	50 to 75%
QLFSEIHNL [peptide QLFSEIHNL (SEQ ID NO: 191)]	≥ 75%
RLYTKLLNEA [peptide RLYTKLLNEA (SEQ ID NO: 19)]	50 to 75%
ALLPRYFFL [peptide ALLPRYFFL (SEQ ID NO: 2)]	20 to 50%
YLKDGDVML [peptide YLKDGDVML (SEQ ID NO: 20)]	50 to 75%
VLIDHRWVL [peptide VLIDHRWVL (SEQ ID NO: 21)]	50 to 75%
GLIDEVMVL (also called CYP2W1-001) [peptide GLIDEVMVL (SEQ ID NO: 22)]	50 to 75%
FLDANGHFV [peptide FLDANGHFV (SEQ ID NO: 23)]	50 to 75%
VLDGVLMEL [peptide VLDGVLMEL (SEQ ID NO: 24)]	50 to 75%
SLADRLIGV [peptide SLADRLIGV (SEQ ID NO: 25)]	≥ 75%
GLASKENFSNVSL [peptide GLASKENFSNVSL (SEQ ID NO: 26)]	20 to 50%
LLADEDSSYL [peptide LLADEDSSYL (SEQ ID NO: 27)]	20 to 50%
ALTEIQEFI [peptide ALTEIQEFI (SEQ ID NO: 28)]	≥ 75%
QMLDVAIRV [peptide QMLDVAIRV (SEQ ID NO: 29)]	50 to 75%
RLIPDTLYSV [peptide RLIPDTLYSV (SEQ ID NO: 3)]	≥ 75%
GLSSAYGGL [peptide GLSSAYGGL (SEQ ID NO: 30)]	10 to 20%
LLYGKYVSV [peptide LLYGKYVSV (SEQ ID NO: 31)]	50 to 75%
KLNTETFGV [peptide KLNTETFGV (SEQ ID NO: 32)]	20 to 50%
ALWEKNTHL [peptide ALWEKNTHL (SEQ ID NO: 33)]	50 to 75%

Binder	peptide exchange yield
ILLEKSVSV [peptide ILLEKSVSV (SEQ ID NO: 34)]	50 to 75%
KLLDLTVRI [peptide KLLDLTVRI (SEQ ID NO: 35)]	50 to 75%
GLLESPSIFNFTA [peptide GLLESPSIFNFTA (SEQ ID NO: 36)]	50 to 75%
GLFAGLGGAGA [peptide GLFAGLGGAGA (SEQ ID NO: 37)]	50 to 75%
SLAPTPVSA [peptide SLAPTPVSA (SEQ ID NO: 38)]	20 to 50%
ALSNVIHKV [peptide ALSNVIHKV (SEQ ID NO: 40)]	20 to 50%
RLAELTVDEFL [peptide RLAELTVDEFL (SEQ ID NO: 4)]	50 to 75%
ILDDSFKLL [peptide ILDDSFKLL (SEQ ID NO: 41)]	20 to 50%
SILDDSFKL [peptide SILDDSFKL (SEQ ID NO: 42)]	≥ 75%
TLDAAQPRV [peptide TLDAAQPRV (SEQ ID NO: 43)]	20 to 50%
SLESKLTSV [peptide SLESKLTSV (SEQ ID NO: 44)]	50 to 75%
ALAELLHGA [peptide ALAELLHGA (SEQ ID NO: 45)]	50 to 75%
GLDDRYSLV [peptide GLDDRYSLV (SEQ ID NO: 46)]	50 to 75%
KLYERCEVV (also called KLYERCEVV) [peptide KLYERCEW (SEQ ID NO: 47)]	20 to 50%
FLDASDPAL [peptide FLDASDPAL (SEQ ID NO: 48)]	20 to 50%
TLMAEMHVV [peptide TLMAEMHW (SEQ ID NO: 50)]	50 to 75%
QVWEIQHTV [peptide QVWEIQHTV (SEQ ID NO: 51)]	20 to 50%
WLFDDGGLTL [peptide WLFDDGGLTL (SEQ ID NO: 5)]	≥ 75%
ALDSSNSMQTI [peptide ALDSSNSMQTI (SEQ ID NO: 52)]	20 to 50%
FLLGSEIKL [peptide FLLGSEIKL (SEQ ID NO: 53)]	50 to 75%
ALLNGEYLLAA [peptide ALLNGEYLLAA (SEQ ID NO: 54)]	50 to 75%
